The values below come from paper PMC5093151.

This data set concerns GII.4 Sydney (SYV) norovirus VLP, assembled capsid protein VP1 (Human norovirus GII.4 Sydney). The experiment in a line: ELASA (plate binding). The note with it: VLP heated 75 C 1 min (partly denatured); 1 uM aptamer; ELASA: VLPs on polystyrene plate, blocked with 5% skim milk in PBS + 0.05% Tween 20 with 10 nM unrelated primers (2 h, room temperature), 1 uM biotinylated ….

Regarding “AGTATACGTATTACCTGCAGCTGGGAAGAGGTCCGGTAAATGCAGGGTCAGCCCGGAGAGCGATATCTCGGAGATCTTGC [M6-2]”, the binding signal (% of signal with untreated VLP) stood at 20.1.
